The target of one data set is Hck (UniProt P08631). Put plainly: phosphorylation enrichment, bacterial display (enrichment ratio); higher = better substrate or ligand; peptides without Tyr show the background.
The next data set relates to c-Src. The data set is described as above.
Another data set addresses EPHB1 (UniProt P54762). The data set is described as above.
Another data set relates to Fer (mouse). Described as above.
Another data set has as its target FGFR3 (UniProt P22607). The description is as above.
The test system of a further data set is c-Abl (mouse). The data set is described as above.
For another data set, the target named is EPHB2 (UniProt P29323). The data set is described as above.
Another data set has as its target Fyn (UniProt P06241). Described as above.
In a further data set the target is FGFR1 (UniProt P11362). Described as above.
Another data set deals with Fes (UniProt P07332). The data set is described as above.
The next data set relates to AncSZ. The description is as above.
In the next data set the target is MERTK (UniProt Q12866). Described as above.
A further data set deals with Jak2 (UniProt O60674). The description is as above.
A further data set addresses SHP2-C SH2. Put plainly: SH2 binding enrichment of the phosphorylated peptide, bacterial display (enrichment ratio); higher = better substrate or ligand; peptides without Tyr show the background.
Another data set has as its target Grb2 SH2 (UniProt P62993). The description is as above.
Another data set concerns the target c-Src SH2. The data set is described as above.
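Wherever SH2 binding enrichment of the phosphorylated peptide, bacterial display is given: peptide library displayed on the E. coli surface as eCPX fusions, selected cells deep-sequenced, score is each peptide's frequency after selection divided by its frequency in the input.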
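Wherever phosphorylation enrichment, bacterial display is given: 11-residue human phosphosite peptides and single-mutation variants displayed on the E. coli surface, counted by deep sequencing, each peptide's frequency after selection divided by its frequency in the unselected input library; frequency after pTyr selection over input frequency; kinase dosed for 20-30% of maximal phosphorylation in three min.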

Chain of EPHB2 (P29323 whole entry, looked up): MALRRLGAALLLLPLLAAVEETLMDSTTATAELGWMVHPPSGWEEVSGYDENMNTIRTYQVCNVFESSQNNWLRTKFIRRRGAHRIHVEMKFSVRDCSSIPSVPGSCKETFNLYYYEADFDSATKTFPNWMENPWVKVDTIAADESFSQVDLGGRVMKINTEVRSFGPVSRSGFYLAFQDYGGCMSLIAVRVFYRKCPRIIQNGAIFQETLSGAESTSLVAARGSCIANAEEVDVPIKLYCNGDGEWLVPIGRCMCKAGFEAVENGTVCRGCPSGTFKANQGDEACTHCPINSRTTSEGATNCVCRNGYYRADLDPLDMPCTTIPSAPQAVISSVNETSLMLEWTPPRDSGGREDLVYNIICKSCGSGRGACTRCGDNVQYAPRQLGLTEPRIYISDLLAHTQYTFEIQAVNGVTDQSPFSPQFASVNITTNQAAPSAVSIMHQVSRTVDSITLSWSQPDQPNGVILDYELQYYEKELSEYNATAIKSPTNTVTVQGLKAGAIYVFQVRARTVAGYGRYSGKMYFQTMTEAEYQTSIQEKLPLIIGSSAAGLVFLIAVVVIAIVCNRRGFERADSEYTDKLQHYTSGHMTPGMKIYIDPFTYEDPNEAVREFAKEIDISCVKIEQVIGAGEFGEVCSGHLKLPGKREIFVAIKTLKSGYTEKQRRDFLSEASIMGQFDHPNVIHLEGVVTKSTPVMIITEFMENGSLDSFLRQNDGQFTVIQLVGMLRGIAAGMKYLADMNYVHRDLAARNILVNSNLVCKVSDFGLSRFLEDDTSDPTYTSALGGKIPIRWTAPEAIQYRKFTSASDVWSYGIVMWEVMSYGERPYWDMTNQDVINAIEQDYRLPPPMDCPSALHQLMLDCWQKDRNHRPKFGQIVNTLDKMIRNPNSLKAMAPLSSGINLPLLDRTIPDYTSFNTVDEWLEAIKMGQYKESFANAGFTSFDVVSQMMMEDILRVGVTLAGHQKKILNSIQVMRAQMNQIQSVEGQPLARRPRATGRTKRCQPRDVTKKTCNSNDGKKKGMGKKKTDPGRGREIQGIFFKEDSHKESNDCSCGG
Chain of MERTK (Q12866 whole entry, looked up): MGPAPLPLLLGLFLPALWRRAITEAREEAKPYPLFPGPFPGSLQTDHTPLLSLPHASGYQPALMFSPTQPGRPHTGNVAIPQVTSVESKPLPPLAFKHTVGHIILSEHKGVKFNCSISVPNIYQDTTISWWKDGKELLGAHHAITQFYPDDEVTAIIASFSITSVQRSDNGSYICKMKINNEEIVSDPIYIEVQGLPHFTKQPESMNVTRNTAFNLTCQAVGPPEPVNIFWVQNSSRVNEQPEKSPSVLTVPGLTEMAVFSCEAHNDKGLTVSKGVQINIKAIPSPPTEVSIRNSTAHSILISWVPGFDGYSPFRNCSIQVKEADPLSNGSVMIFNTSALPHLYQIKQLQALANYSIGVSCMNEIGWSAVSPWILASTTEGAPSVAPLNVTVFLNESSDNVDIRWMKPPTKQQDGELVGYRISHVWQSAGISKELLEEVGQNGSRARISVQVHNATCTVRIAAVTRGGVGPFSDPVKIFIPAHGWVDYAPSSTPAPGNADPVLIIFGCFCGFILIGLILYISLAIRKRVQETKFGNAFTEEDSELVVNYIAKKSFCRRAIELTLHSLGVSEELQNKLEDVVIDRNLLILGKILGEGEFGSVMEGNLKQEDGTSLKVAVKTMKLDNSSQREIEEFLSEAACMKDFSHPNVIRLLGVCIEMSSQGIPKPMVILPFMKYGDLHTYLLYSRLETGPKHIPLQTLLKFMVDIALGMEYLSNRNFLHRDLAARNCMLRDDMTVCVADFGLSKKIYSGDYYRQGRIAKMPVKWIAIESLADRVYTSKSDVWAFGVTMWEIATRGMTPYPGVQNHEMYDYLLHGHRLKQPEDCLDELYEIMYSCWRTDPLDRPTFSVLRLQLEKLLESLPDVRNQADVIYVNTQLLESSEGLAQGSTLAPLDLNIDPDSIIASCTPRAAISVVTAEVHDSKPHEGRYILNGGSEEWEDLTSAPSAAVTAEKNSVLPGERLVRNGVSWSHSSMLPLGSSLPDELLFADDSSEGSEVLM
Chain of Grb2 SH2 (P62993 whole entry, looked up): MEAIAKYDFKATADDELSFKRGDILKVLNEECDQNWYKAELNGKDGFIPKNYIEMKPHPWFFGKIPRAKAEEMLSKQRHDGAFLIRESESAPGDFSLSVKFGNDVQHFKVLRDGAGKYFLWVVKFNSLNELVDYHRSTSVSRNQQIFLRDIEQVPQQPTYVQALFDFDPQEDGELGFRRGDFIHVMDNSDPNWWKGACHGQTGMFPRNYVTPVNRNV
Chain of EPHB1 (P54762 whole entry, looked up): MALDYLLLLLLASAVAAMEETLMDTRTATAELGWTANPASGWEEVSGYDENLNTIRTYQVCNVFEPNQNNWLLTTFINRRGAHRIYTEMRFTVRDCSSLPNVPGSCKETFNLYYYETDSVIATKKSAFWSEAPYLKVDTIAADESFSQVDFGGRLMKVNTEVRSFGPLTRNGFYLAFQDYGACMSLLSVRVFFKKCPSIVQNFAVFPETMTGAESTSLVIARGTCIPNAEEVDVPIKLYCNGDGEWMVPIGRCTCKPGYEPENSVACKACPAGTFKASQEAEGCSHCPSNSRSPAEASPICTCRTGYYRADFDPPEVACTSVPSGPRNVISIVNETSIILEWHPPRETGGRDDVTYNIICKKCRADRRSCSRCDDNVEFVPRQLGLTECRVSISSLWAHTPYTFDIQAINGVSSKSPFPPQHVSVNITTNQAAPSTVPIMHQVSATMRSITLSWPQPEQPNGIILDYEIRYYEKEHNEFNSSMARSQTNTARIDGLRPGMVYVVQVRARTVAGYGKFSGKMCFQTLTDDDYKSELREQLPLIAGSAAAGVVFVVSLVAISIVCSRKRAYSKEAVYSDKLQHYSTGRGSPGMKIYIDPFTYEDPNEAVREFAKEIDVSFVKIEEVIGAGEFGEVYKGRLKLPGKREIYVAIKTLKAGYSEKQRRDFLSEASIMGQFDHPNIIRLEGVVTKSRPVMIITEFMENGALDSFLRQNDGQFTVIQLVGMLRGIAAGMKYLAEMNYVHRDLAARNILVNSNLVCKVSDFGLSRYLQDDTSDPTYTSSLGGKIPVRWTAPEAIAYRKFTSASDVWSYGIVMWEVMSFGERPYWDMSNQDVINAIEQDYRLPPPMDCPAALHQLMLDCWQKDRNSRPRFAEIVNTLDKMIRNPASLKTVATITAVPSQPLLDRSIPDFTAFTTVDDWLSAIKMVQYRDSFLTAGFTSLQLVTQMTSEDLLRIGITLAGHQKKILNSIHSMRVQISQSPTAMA
Chain of FGFR1 (P11362 whole entry, looked up): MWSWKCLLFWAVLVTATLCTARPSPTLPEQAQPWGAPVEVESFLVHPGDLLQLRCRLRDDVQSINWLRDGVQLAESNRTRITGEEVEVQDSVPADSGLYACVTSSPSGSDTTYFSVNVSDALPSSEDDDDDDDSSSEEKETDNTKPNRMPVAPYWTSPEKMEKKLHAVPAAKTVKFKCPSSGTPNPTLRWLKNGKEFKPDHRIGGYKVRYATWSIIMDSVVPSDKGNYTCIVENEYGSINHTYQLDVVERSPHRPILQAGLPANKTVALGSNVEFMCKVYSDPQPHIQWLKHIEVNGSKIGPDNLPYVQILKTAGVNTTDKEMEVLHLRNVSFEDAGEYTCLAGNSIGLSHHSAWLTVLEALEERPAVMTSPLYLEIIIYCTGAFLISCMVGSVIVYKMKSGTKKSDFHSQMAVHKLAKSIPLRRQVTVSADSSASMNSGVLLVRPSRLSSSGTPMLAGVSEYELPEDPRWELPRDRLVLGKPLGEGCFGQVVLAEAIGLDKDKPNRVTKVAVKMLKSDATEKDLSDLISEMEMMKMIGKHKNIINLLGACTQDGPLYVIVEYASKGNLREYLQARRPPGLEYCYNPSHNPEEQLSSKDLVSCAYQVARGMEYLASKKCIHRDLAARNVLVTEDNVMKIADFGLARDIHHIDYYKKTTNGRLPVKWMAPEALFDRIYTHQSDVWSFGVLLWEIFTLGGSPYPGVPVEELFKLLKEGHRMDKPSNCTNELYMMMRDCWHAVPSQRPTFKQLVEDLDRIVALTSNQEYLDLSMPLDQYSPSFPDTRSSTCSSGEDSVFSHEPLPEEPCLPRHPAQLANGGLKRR
Chain of Fyn (P06241 whole entry, looked up): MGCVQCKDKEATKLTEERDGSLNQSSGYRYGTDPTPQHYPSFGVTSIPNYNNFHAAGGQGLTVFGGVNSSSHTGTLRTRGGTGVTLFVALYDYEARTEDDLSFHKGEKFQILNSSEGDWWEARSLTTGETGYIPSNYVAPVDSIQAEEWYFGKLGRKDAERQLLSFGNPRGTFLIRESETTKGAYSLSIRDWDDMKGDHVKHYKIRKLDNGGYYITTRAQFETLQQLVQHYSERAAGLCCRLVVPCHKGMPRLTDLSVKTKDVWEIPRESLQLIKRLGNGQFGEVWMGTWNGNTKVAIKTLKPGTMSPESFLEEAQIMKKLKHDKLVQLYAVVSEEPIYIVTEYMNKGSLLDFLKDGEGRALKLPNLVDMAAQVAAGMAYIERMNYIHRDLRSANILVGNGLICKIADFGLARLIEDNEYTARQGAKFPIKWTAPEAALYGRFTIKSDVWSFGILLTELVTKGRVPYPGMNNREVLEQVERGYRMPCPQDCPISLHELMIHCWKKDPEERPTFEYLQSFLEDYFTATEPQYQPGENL

Consider LGLDEYLDKLK [FMNL2_Y352], for which the phosphorylation enrichment with Hck was 0.587; in the data set on c-Src it was 0.375; with EPHB1 it was 0.716; with Fer (mouse), 0.933; in the data set with FGFR3 it was 0.971; in the data set on c-Abl (mouse), 0.982. Besides, the phosphorylation enrichment with EPHB2 was determined as 0.816; in the data set with Fyn, 0.394; with FGFR1 it was 0.536; with Fes it was 1.27; in the data set with AncSZ it was 1.47; with MERTK, 0.569. Moreover, the phosphorylation enrichment in the data set with Jak2 came out at 1.71. Besides, the SH2 binding enrichment came to 0.662 in the data set with SHP2-C SH2, 0.78 with Grb2 SH2 and 0.588 with c-Src SH2.
On to LGQRIYQYIQS [DYRK1B_Y271], for which the phosphorylation enrichment with Hck was found to be 8.12; in the data set with c-Src it was 5.08; in the data set with EPHB1, 20.9; with Fer (mouse), 18.1; with FGFR3 it was 3.3; in the data set with c-Abl (mouse) it was 2.74. In addition, the phosphorylation enrichment came out at 12.5 with EPHB2; 4.18 with Fyn; 5.29 with FGFR1; 2.86 with Fes; 1.54 in the data set with AncSZ; 13.5 in the data set with MERTK. The phosphorylation enrichment with Jak2 turned out to be 1.3. Further, the SH2 binding enrichment with SHP2-C SH2 is 1.2; with Grb2 SH2, 1.02; in the data set with c-Src SH2, 4.11.
In the case of LHAALYKRKLL [TTLL5_Y542_E543K], the phosphorylation enrichment was 0.536 with Hck; 0.551 in the data set on c-Src; 0.454 with EPHB1; 0.41 in the data set on Fer (mouse); 0.518 with FGFR3; 1.24 with c-Abl (mouse). Besides, the phosphorylation enrichment was 0.527 with EPHB2; 0.464 with Fyn; 0.483 with FGFR1; 0.702 in the data set with Fes; 0.771 in the data set with AncSZ; 0.502 in the data set with MERTK. In the data set with Jak2, the phosphorylation enrichment worked out at 1.17. Also, the SH2 binding enrichment was 2.26 with SHP2-C SH2, 0.858 in the data set with Grb2 SH2 and 0.517 with c-Src SH2.
LHRHAYPEQQQ [DPPA2_Y127_R131Q]: the phosphorylation enrichment in the data set with Hck came to 0.474; in the data set on c-Src, 0.559; with EPHB1, 0.837; in the data set on Fer (mouse) it was 0.743; with FGFR3, 0.828; in the data set with c-Abl (mouse) it was 0.716. In addition, the phosphorylation enrichment was 0.811 with EPHB2; 0.824 with Fyn; 1.07 in the data set with FGFR1; 0.901 with Fes; 0.726 with AncSZ; 0.401 with MERTK. For the same sequence, in the data set with Jak2, the phosphorylation enrichment was 0.645. For the same sequence, the SH2 binding enrichment with SHP2-C SH2 turned out to be 0.839; in the data set with Grb2 SH2 it was 1.02; in the data set with c-Src SH2 it was 0.906.
For the sequence LHVKMYNFLRS [ADGRG7_Y760_R756H], the phosphorylation enrichment was found to be 0.625 in the data set with Hck; 0.711 in the data set with c-Src; 0.831 with EPHB1; 1.11 in the data set with Fer (mouse); 0.94 with FGFR3; 2.26 with c-Abl (mouse). The phosphorylation enrichment in the data set with EPHB2 is 0.778; with Fyn it was 0.615; with FGFR1 it was 0.714; with Fes, 1.89; in the data set on AncSZ, 1.97; with MERTK, 0.85. Also, in the data set with Jak2, the phosphorylation enrichment was determined as 1.69. Moreover, the SH2 binding enrichment came to 1.07 with SHP2-C SH2, 1.28 in the data set with Grb2 SH2 and 0.827 with c-Src SH2.
As to LIDGFYRLTAD [JAK2_Y373_YF], the phosphorylation enrichment in the data set with Hck is 0.807; with c-Src it was 0.86; with EPHB1 it was 0.747; in the data set on Fer (mouse) it was 0.523; in the data set with FGFR3, 0.991; in the data set on c-Abl (mouse), 0.816. Further, the phosphorylation enrichment in the data set with EPHB2 amounted to 0.883; with Fyn it was 0.698; with FGFR1 it was 0.754; with Fes, 1.51; in the data set with AncSZ it was 1.29; in the data set with MERTK, 0.741. The phosphorylation enrichment in the data set with Jak2 was 1.29. The SH2 binding enrichment in the data set with SHP2-C SH2 was determined as 0.759; in the data set with Grb2 SH2, 0.918; in the data set with c-Src SH2 it was 0.503.
For the sequence LINLKYSVEEE [PCDH19_Y27], the phosphorylation enrichment amounted to 0.447 in the data set with Hck; 1.19 with c-Src; 0.755 with EPHB1; 0.806 in the data set with Fer (mouse); 0.895 with FGFR3; 1.12 in the data set on c-Abl (mouse). Moreover, the phosphorylation enrichment was 0.755 with EPHB2; 0.579 in the data set with Fyn; 0.525 with FGFR1; 2.46 with Fes; 1.36 in the data set with AncSZ; 0.583 in the data set with MERTK. The phosphorylation enrichment with Jak2 worked out at 1.88. Besides, the SH2 binding enrichment was 0.548 with SHP2-C SH2, 0.868 in the data set with Grb2 SH2 and 0.525 with c-Src SH2.
Regarding LINSVYGCSRQ [TMPRSS6_Y290_T287N], the phosphorylation enrichment with Hck is 4.43; in the data set on c-Src, 5.15; with EPHB1 it was 1.01; in the data set with Fer (mouse), 0.863; with FGFR3 it was 0.974; with c-Abl (mouse), 1.37. The phosphorylation enrichment in the data set with EPHB2 worked out at 1; with Fyn it was 3.32; in the data set with FGFR1 it was 1.02; in the data set with Fes, 1.57; with AncSZ it was 1.43; with MERTK, 1.21. The phosphorylation enrichment in the data set with Jak2 was 1.82. Also, the SH2 binding enrichment in the data set with SHP2-C SH2 was 1.12; with Grb2 SH2, 0.727; in the data set with c-Src SH2, 0.589.
Consider LKALKYKSMKI [ITGA11_Y1098], for which the phosphorylation enrichment with Hck turned out to be 0.424; in the data set with c-Src it was 0.322; in the data set with EPHB1 it was 0.299; in the data set with Fer (mouse), 0.452; in the data set with FGFR3 it was 0.619; in the data set with c-Abl (mouse), 0.568. Also, the phosphorylation enrichment worked out at 0.31 with EPHB2; 0.641 with Fyn; 0.225 in the data set with FGFR1; 0.701 in the data set with Fes; 0.374 in the data set on AncSZ; 0.336 in the data set with MERTK. In addition, the phosphorylation enrichment with Jak2 is 0.735. The SH2 binding enrichment with SHP2-C SH2 came out at 0.876; in the data set with Grb2 SH2 it was 1.34; in the data set with c-Src SH2, 0.783.

The values above are taken from the supplement of paper PMC10065799, “High-throughput profiling of sequence recognition by tyrosine kinases and SH2 domains using bacterial peptide display” (eLife, 2023).
